Results as given in publication PMC4287497, “Phosphorylation of Elp1 by Hrr25 Is Required for Elongator-Dependent tRNA Modification in Yeast” (PLoS Genetics, 2015).

Legend:
Kti12 [1] = target: Kti12 (UniProt P34253); assay: Elp2-myc IP of Elongator, anti-HA blot for Kti12; conditions: reference: wild type Elp1; sites S1209
Kti12 [2] = target: Kti12 (UniProt P34253); assay: GFP-trap IP of Elp1-GFP, anti-HA blot, densitometry; conditions: reference: wild type Elp1-GFP; sites S1209
Elp1-S1209A-GFP = target: T1, Elp1-S1209A-GFP (S. cerevisiae, UniProt Q06706 1-1349, S1209A); assay: co-IP; GFP-tagged Elp1 (genomic locus) precipitated with GFP-trap from yeast extracts; Western blot with anti-GFP and anti-HA; densitometry of Kti12-HA normalised to Elp1-GFP, wild type set to 1.0; conditions: partners not purified
T1 construct: Elp1 (Iki3), S. cerevisiae; also called mutant Elp1-GFP fusion; source: S. cerevisiae, expressed from its genomic locus, in cell extract
T1 sequence (looked up): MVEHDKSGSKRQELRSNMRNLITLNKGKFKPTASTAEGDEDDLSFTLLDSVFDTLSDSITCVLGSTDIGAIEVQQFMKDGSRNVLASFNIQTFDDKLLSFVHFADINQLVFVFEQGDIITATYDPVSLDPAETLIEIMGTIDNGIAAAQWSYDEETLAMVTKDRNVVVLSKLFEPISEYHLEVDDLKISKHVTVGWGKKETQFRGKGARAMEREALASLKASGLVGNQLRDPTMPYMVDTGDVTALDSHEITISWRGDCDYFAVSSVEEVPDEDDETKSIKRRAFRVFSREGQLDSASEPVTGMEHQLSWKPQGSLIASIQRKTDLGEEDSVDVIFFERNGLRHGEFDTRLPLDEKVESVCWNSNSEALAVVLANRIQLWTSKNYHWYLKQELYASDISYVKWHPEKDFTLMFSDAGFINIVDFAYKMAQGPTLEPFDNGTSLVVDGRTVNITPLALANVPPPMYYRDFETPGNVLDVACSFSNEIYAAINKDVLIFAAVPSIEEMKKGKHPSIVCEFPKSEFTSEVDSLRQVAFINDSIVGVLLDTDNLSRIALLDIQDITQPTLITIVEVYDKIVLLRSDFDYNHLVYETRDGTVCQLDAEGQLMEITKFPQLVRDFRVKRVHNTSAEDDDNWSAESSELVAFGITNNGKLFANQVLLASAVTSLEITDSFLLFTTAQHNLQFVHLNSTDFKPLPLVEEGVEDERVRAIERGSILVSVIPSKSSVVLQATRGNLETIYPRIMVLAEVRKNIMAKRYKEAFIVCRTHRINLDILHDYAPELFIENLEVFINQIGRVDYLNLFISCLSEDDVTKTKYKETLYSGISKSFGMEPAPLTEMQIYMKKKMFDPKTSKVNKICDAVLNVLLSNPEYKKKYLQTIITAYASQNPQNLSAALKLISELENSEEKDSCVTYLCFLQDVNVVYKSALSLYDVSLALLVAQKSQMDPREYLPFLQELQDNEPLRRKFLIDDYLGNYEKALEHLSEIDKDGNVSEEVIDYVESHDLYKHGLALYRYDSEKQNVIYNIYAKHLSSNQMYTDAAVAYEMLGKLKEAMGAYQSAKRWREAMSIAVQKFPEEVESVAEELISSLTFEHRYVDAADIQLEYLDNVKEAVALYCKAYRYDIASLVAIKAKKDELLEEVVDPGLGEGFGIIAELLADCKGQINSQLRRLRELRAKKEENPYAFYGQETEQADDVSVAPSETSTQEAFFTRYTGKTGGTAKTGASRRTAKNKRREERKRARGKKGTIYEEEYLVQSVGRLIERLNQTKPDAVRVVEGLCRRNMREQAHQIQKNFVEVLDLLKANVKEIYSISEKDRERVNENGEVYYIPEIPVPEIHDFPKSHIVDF

In the case of “Elp1 (Iki3) (from UniProt Q06706) S1209A”, the “binding against the reference” value (Kti12 [1]) is reported as “stronger”.

“Elp1 (Iki3) (from UniProt Q06706) S1209A Elp1-GFP” was tested, and the fold change (Kti12 [2]) was “stronger; reference 1.0”.

B1: Kti12-HA6 (natural protein, S. cerevisiae, UniProt P34253 1-313, looked up)
chain: MPLVLFTGYPCSGKTTLAKHLVQLLQSKIDATPSLSKYSITYHSDESLGIKHSDYITSQDERKLRSEIISAVKRDLSKNKIVIVDSLNYIKGFRYQLHCEVKNLSTTFCVIQTLCPPETIFEWNKTSNPNPWEPELLNQLIQRYEEPNSSNRWDSPLFAILTPQDNITDYIDDICKVVFQTSKSAKNSGHNDPLSKGLQKPNSATVLKPASQSNFIQVLDIETSKIIKTIMNHIKSLTSIGGVSNGTRVIVSEGITDINDDGCFFVDLPIGNVVTLAQLQRLKRQFINFNKLRDIDQDRIGPLFADYLNKNLN
notes: Kti12, accessory protein of Elongator, S. cerevisiae; also called HA-tagged Kti12; source: S. cerevisiae KTI12-HA6 strains, in cell extract
In the case of B1, the “Kti12 co-precipitated, fold of wild-type Elp1” value (Elp1-S1209A-GFP) is reported as ~2 fold of wild-type Elp1.
